Values of other authors as cited in paper PMC8773166.

Biological target: calmodulin (UniProt P0DP23)

## NCX1 XIP peptide XIP (from UniProt P32418)
  Kd: 200 nM
